In PMC3036652, “Functional Analysis of an Acid Adaptive DNA Adenine Methyltransferase from Helicobacter pylori 26695” (PLoS ONE, 2011):

Legend:
HP0593 MTase = biological target: T1, HP0593 MTase (Helicobacter pylori, UniProt O25315); test: EMSA of enzyme with […]-labelled duplex […] DNA; assay type: binding; conditions: on ice, no divalent metal, ternary complex with cognate DNA, indirect read-out
T1 construct: gene HP_0593; full-length, 1797 bp gene in pET14b (NdeI/BamHI), N-terminal His6 tag kept, E. coli BL21(DE3) pLysS; monomer and dimer in solution, functions as dimer
T1 sequence (O25315 1-598): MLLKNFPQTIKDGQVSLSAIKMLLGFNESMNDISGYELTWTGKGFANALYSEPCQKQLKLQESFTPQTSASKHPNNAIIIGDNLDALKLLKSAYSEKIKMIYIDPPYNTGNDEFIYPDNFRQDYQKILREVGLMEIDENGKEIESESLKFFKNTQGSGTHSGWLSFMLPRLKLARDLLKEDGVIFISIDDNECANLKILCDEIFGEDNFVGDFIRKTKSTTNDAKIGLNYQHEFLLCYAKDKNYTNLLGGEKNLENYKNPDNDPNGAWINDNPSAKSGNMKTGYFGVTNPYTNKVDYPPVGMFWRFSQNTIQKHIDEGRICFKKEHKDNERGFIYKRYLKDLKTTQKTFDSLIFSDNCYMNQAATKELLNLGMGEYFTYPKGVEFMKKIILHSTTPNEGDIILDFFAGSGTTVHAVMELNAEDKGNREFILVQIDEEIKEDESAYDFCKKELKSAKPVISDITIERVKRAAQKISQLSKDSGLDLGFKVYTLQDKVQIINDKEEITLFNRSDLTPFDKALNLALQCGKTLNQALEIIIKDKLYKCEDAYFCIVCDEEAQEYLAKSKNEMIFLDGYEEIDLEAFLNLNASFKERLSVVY

[1] = biological target: HP0593 DNA-(N6-adenine)-methyltransferase (Helicobacter pylori 26695); test: SEC
[2] = biological target: HP0593 DNA-(N6-adenine)-methyltransferase (Helicobacter pylori 26695); test: cross-linking
[3] = biological target: HP0593 DNA-(N6-adenine)-methyltransferase (Helicobacter pylori 26695); test: SEC; reinjection of the dimer peak of the gel filtration; data not shown
[4] = biological target: HP0593 DNA-(N6-adenine)-methyltransferase (Helicobacter pylori 26695); test: cross-linking; 0.06% and 0.08% glutaraldehyde-treated HP0593 MTase, products analysed by MALDI-MS; data not shown
[5] = biological target: T2, HP0593 DNA-(N6-adenine)-methyltransferase (HP0593 MTase) (Helicobacter pylori 26695, UniProt O25315 1-598); test: SPR; 1.0 mM MnCl2; EMSA: 10 mM potassium phosphate pH 5.5, 7 mM β-mercaptoethanol, 10% glycerol, no divalent metal, 10 min on ice, 0.5-5.0 µM protein, ~100 nM DNA, gel 0.5x TBE 4°C; SPR: 10 mM HEPES pH 7.4, 100 mM NaCl, 0.05% P-20, ±1.0 mM MnCl2, 25°C, 1:1 Langmuir global fit; conditions: protein: recombinant; tags: N-terminal His6 (pET14b); label: 5' biotin on top strand, immobilized on SA chip; blunt
T2 sequence: T1 sequence (O25315 1-598)

[6] = biological target: T2, HP0593 …; test: EMSA; no cofactor; up to 3.0 µM protein; EMSA: 10 mM potassium phosphate pH 5.5, 7 mM β-mercaptoethanol, 10% glycerol, no divalent metal, 10 min on ice, 0.5-5.0 µM protein, ~100 nM DNA, gel 0.5x TBE 4°C; SPR: 10 mM HEPES pH 7.4, 100 mM NaCl, 0.05% P-20, ±1.0 mM MnCl2, 25°C, 1:1 Langmuir global fit; conditions: protein: recombinant; tags: N-terminal His6 (pET14b); label: 32P; blunt

Question: For Nc1ncnc2c1ncn2[C@@H]1O[C@H](C[C@@H](N)CC[C@H](N)C(=O)O)[C@@H](O)[C@H]1O [sinefungin], which “EMSA of enzyme with 32P-labelled duplex 2 DNA” value (HP0593 MTase; 10 µM sinefungin, pH 5.5) is on record?
Answer: which is stabilized by AdoHcy and in some extent by sinefungin

Question: With Nc1ncnc2c1ncn2[C@@H]1O[C@H](CSCC[C@H](N)C(=O)O)[C@@H](O)[C@H]1O [AdoHcy] as the molecule, how does the “EMSA of enzyme with 32P-labelled duplex 2 DNA” value (HP0593 MTase; 5 µM AdoHcy, 10 mM potassium phosphate pH 5.5) read?
Answer: This suggested the formation of a stable ternary complex in the presence of AdoHcy

Question: With “HP0593 DNA-(N6-adenine)-methyltransferase (enzyme)” as the molecule, how does the stoichiometry N [1] read?
Answer: 2

Question: What about the stoichiometry N [2] of the same molecule?
Answer: 2

Question: And the stoichiometry N [3]?
Answer: 2

Question: What about the stoichiometry N [4] of the same molecule?
Answer: 2

B1: duplex 18 (dsDNA)
DNA 1: GATCAATAGATGCGCAGATCATTTACATT
DNA 2: AATGTAAATGATCTGCGCATCTATTGATC
Question: How did the Kd [5] turn out when B1 was run?
Answer: 4.58 nM

B2: duplex 19 (lacks GCAG) (dsDNA)
DNA 1: GATCAATAGATCCCCGGATCATTTACATT
DNA 2: AATGTAAATGATCCGGGGATCTATTGATC
Question: Does B2 bind [6]?
Answer: no binding
